Consider three molecules from paper doi:10.1101/2020.12.29.424711 (bioRxiv, 2020).

Assay [1] concerns the target SARS-CoV-2 receptor binding domain (RBD), as crystallised (SARS-CoV-2, UniProt P0DTC2). Description: crystal structure.
The target of assay [2] is SARS-CoV-2 RBD, as used in Octet epitope binning and as SPR analyte (SARS-CoV-2, UniProt P0DTC2). Description: BLI. (In general: BLI is a label-free optical method that tracks binding on a fibre tip over time.)

B1: ION_360 Fab (Fab, V domains shown)
VH: EVQLVQSGGGLVKPGGSLRLSCAASGITVSSNYMSWVRQAPGKGLEWVSVIYSGGSTYYADSVKGRFTISRDNSKNTLYLQMNSLRAEDTAVYYCARGEGGSIVGVTSDYWGQGTLVTVSS
VL: DIQMTQSPSSLSASVGDRVTITCRASQSISRYLNWYQQKPGKAPKLLIYAASSLQSGVPSRFSGSGSETEFTLTISSLHPDDFATYYCQQSYSTLPYTFGQGTKVEIK
Regarding B1, in assay [1], the binding result is “binds”.

B2: ION_300 Fab (Fab, V domains shown)
VH: QVQLVQSGAEVKKPGESLKISCKGSGYSFTSYWIGWVRQMPGKGLEWMGIIYPGDSDTRYSPSFQGQVTISADKSISTAYLQWSSLKASDTAMYYCARHPSPYYYGSGSYSGGFDYWGQGTLVTVSS
VL: DIVMTQSPGTLSLSPGERATLSCRASQSVSSSYLAWYQQKPGQAPRLLIYGASTRATGIPARFSGSGSGTEFTLTISSLQSEDFAVYYCQQYDNWPLMHTFGQGTKLEIK
For B2, in assay [1], the binding result is “binds”.

B3: ION_300 IgG1 (antibody, V domains shown)
VH: QVQLVQSGAEVKKPGESLKISCKGSGYSFTSYWIGWVRQMPGKGLEWMGIIYPGDSDTRYSPSFQGQVTISADKSISTAYLQWSSLKASDTAMYYCARHPSPYYYGSGSYSGGFDYWGQGTLVTVSS
VL: DIVMTQSPGTLSLSPGERATLSCRASQSVSSSYLAWYQQKPGQAPRLLIYGASTRATGIPARFSGSGSGTEFTLTISSLQSEDFAVYYCQQYDNWPLMHTFGQGTKLEIK
With B3, the binding result in assay [2] is reported as “binds”.
